Reference: article PMC314469, “Protein Interaction Networks by Proteome Peptide Scanning” (PLoS Biology, 2004)

T1: amphyphisin SH3 (AMPH_HUMAN), P49418
T1 chain: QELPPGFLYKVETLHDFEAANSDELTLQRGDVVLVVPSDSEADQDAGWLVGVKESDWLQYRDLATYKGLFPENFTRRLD


Key:
[1] = target: endophilin SH3 (SH3G2_HUMAN), Q99962; experiment: SPOT array
[2] = target: T1, amphyphisin SH3 (AMPH_HUMAN), P49418; experiment: SPOT array

| Binder | normalised SPOT signal, Boehringer light units (BLU); mean over the file's lines of this peptide [1] | normalised SPOT signal, Boehringer light units (BLU); mean over the file's lines of this peptide [2] |
| --- | --- | --- |
| LPEELPRPRRPPPE [P22460 81-94] | 150 | 102 |
| LPENFRRPQTDQAV [Q9H8X4 102-115] | 40.7 | 20.2 |
| LPETFRRPQIDPAV [Q9UJL8 67-80] | 17.6 | 23.1 |
| LPEVPEKPPAGESV [Q9NVI4 527-541] | 57.1 | 39.6 |
| LPFYFKRPPINVAI [P78346 133-146] | 73.2 | 16.4 |
| LPGEPRRPAEIYHS [Q9P006 57-70] | 44.5 | 19.2 |
| APPVLKRPILQSLL [Q14700 527-540] | 309 | 39.2 |
| LPHWLRRPVYSLYI [Q9UG56 133-146] | 210 | 49.7 |
| LPIAFIRPFREHHI [Q9UKL1 106-119] | 1060 | 6760 |
| LPKGLGRPGKGHYW [Q12946 84-97] | 104 | 207 |
| LPKHLRRPEPSKPQ [Q96M07 127-140] | 12.8 | 15.9 |
| LPLPFSRPQKIYHF [O95047 163-176] | 680 | 428 |
| AAPPPAKPPPPPQP [O15399 900-914] | 77.6 | 41.3 |
| LPLPPARPPVLHSS [O95098 58-72] | 3620 | 1580 |
| LPLPPPRPPLLSAR [Q9P0P4 137-151] | 8510 | 2320 |
| LPPDIERPYKAEPL [Q9Y4U3 288-301] | 95.9 | 75.1 |
| LPPKPARPPAVSPA [O60885 879-893] | 4260 | 215 |
| LPPLPHRPPQNPFV [P42694 1701-1715] | 79 | 261 |
| APQPPGRPPTPGPP [Q14957 973-987] | 820 | 307 |
| LPPLPKRPALEKTN [Q9NR56 294-307] | 2280 | 160 |
| LPQWPRRPGRRWPA [Q9Y6F2 30-43] | 7880 | 820 |

| Binder | normalised SPOT signal, Boehringer light units (BLU); mean over the file's lines of this peptide [1] | normalised SPOT signal, Boehringer light units (BLU); mean over the file's lines of this peptide [2] |
| --- | --- | --- |
| LPRSPPRPPRLWSF [Q9UKB5 52-66] | 24000 | 15300 |
| LPVSLTRPPKLVLH [Q9Y2E6 378-391] | 272 | 121 |
| LQAELRRPPPAPAQ [O94766 54-67] | 21.1 | 26.4 |
| LQFRIRRPRPPARG [Q96QS4 5-18] | 48.5 | 84.3 |
| LQGIFTRPSKLTRQ [O43611 94-107] | 210 | 324 |
| LQKQPRRPRRWVTV [O95125 124-137] | 220 | 2180 |
| LQLGPSRPPTGEAL [Q9NXY3 388-402] | 62.4 | 38 |
| LQPRPRRPREAADT [Q96LS1 115-128] | 329 | 371 |
| APQPPPRPPSPRYE [Q9Y566 1372-1386] | 14500 | 1320 |
| LQPRPRRPREAPDT [Q15653 147-160] | 222 | 412 |
| LQRQLKRPRPVILD [Q9H3P5 284-297] | 194 | 41.9 |
| LQRRLKRPETPTHD [Q9NVU6 531-544] | 41.8 | 28.9 |
| LQSDPPRPHRILQA [Q06481 479-492] | 184 | 170 |
| LRAMPSRPPRLLAT [Q9UNU2 285-298] | 7160 | 5160 |
| LRATLKRPEVIATS [Q96JV6 461-474] | 97.1 | 37.9 |
| LREDFVRPLREGIL [Q9P2E3 383-396] | 208 | 5300 |
| LRGKFKRPPLRRVR [P48788 102-115] | 50.6 | 35.8 |
| LRGKFKRPTLRRVR [P19429 134-147] | 38 | 23.3 |
| LRKRPLKPPAKKIM [O14789 574-588] | 6220 | 91.3 |
| APQSPRRPPHPLPP [P12270 2055-2069] | 2810 | 339 |
| LRPPPMRPVRPVVQ [O43295 603-616] | 16200 | 7210 |
